T1: MBP-DA2 (Arabidopsis, UniProt Q93YV5 1-401)
T1 construct: Used as bacterial lysate and held on amylose resin; also called DA2 expressed as a MBP fusion protein; DA2-MBP
T1 sequence: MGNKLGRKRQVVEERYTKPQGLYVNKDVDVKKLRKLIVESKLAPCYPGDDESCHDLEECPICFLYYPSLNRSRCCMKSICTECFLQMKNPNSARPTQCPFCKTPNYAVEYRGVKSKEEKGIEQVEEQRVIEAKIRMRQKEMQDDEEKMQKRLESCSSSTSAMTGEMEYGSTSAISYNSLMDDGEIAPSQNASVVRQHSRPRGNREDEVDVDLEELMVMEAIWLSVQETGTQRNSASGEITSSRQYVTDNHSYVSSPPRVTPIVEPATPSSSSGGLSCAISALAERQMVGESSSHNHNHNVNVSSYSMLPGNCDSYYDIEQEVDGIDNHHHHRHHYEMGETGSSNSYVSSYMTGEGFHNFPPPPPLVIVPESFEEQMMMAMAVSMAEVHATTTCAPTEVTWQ


Target: T1, MBP-DA2
Assay: in vitro pull-down on amylose resin, anti-GST immunoblot
Protocol: To test protein-protein interaction, bacterial lysates containing approximately 15 μg of MBP-DA2 fusion proteins were combined with lysates containing approximately 30 μg of GST-DA1, GST-DA1R358K, GST-DA1-UIM, GST-DA1-LIM, GST-DA1-LIM+C or GST-DA1-C fusion proteins. 20 μl amylose resin (New England Biolabs) was added into each combined solution with continued rocking at 4° C. for 1 hour. Beads were washed […] with TGH buffer, and the isolated proteins were separated on a 10% SDS-polyactyamide gel and detected by western blot analysis with anti-GST (Abmart) and anti-MBP antibodies (Abmart), respectively.

Binder	binding result
GST-DA1-UIM (other, Only the part holding the two UIM domains was in the assay; not shown: glutathione S-transferase (GST) tag from vector pGEX-4T-1) MGWFNKIFKGSNQRLRVGNNKHNHNVYYDNYPTASHDDEPSAADTDADNDEPHHTQEPSTSEDNTSNDQENEDIDRAIALSLLEENQEQTSISGKYSMPVDEDEQLARALQESMVVGNSPRHKSGSTYDNGNAYGAGDLYGNGHMYGGGNVYANGDIYYPRPITFQMDF	no binding
GST-DA1-LIM (other, Only the LIM domain was in the assay; not shown: glutathione S-transferase (GST) tag from vector pGEX-4T-1) RICAGCNMEIGHGRFLNCLNSLWHPECFRCYGCSQPISEYEFSTSGNYPFHKACYRERYHP	no binding

Reference: patent publication US20190300897A1 (INSTITUTE OF GENETICS AND DEVELOPMENTAL BIOLOGY CHINESE …, published 2019)
